Experimental data published in patent publication US20160017024A1 (Five Prime, published 2016).
Each block holds one binder with its values, some of them ahead of it.

How the values were obtained:
[1] = biological target: full length human LTK with an HA tag at the C-terminus, expressed on transfected cells (human, UniProt P29376 17-864); test: cell-based or functional assay
[2] = biological target: T1, Mouse LTK ECD-Fc (mouse); test: SPR (Biacore T100), ECD-Fc captured on Protein A CM4 chip
T1 construct: also called mouse LTK ECD-Fc (human Fc)
T1 sequence (chain, as listed by the source limits assumed): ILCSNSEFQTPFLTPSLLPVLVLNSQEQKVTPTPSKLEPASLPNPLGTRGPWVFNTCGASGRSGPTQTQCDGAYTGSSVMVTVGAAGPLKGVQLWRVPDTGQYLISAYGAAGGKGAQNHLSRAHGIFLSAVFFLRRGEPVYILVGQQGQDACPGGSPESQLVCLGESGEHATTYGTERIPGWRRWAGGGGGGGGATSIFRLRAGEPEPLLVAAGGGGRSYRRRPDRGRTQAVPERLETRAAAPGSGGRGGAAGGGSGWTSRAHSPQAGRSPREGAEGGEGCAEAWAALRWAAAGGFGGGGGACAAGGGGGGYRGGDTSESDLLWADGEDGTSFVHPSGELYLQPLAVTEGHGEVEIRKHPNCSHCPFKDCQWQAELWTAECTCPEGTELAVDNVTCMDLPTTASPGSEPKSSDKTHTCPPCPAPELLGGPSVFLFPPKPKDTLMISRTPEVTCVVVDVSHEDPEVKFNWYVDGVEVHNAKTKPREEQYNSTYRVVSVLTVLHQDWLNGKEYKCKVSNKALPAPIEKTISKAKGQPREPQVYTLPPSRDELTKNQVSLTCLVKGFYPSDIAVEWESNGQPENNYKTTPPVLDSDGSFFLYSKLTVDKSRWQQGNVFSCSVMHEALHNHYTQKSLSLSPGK
Experimental: The kₐ, kd, and KD for binding of human FAM150A to human LTK ECD-Fc (SEQ ID NO: 23) and mouse LTK ECD-Fc (SEQ ID NO: 25) was determined as follows. Binding kinetics of FAM150A to human and mouse LTK ECD-Fc fusion proteins was determined using Biacore T100 SPR (GE Healthcare Life Sciences, Piscataway, N.J.). LTK ECD-Fc fusions were captured on a CM4 sensor chip immobilized with Protein A (Thermo Scientific, Rockford, Ill.). HBS-P (GE Healthcare Life Sciences, Piscataway, N.J.) was used as the running and dilution buffer. Capture levels of the ECD-Fc fusions were adjusted to approximately 300-500RU so that binding values would be greater than the levels of non-specific binding to the reference flow cell. FAM150A was injected at […] (100 nM, 33.3 nM, 11.1 nM, 3.7 nM, 1.2 nM, 0.41 nM, 0.13 nM, 0.046 nM and 0 nM) for 120 seconds. The association constant, dissociation constant, and affinity of FAM150A for LTK Fc-ECD fusions was calculated using the Biacore T100 Evaluation software package using the 1:1 binding model.

Chain of full length human LTK with an HA tag at the C-terminus, expressed on transfected cells (P29376 17-864): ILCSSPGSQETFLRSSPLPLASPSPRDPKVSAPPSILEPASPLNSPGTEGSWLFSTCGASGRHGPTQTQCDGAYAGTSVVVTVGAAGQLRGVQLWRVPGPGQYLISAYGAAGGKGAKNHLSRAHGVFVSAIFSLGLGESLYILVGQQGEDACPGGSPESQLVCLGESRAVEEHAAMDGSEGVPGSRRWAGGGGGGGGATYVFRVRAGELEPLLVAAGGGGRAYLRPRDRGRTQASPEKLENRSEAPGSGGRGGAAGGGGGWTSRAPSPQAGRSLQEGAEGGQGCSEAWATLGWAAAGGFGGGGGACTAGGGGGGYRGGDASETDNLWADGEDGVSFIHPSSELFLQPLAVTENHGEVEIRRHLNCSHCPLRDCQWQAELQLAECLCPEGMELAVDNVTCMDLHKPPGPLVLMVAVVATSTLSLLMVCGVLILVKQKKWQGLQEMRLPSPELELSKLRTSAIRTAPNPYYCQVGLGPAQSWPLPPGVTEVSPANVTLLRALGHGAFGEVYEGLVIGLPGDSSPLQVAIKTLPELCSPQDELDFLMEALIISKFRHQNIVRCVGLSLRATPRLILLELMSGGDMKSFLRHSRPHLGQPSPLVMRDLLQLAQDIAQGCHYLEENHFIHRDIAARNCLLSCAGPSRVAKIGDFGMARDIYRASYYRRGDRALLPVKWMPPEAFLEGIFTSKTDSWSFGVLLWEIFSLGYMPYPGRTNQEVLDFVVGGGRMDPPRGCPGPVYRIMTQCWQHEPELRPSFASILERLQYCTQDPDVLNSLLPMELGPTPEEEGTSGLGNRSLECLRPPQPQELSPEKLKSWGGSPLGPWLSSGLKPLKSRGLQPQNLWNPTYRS

induction of LTK phosphorylation relative to an unrelated control protein [1]: > 2 fold
B1: Human FAM150B (ligand)
chain: GAEPREPADGQALLRLVVELVQELRKHHSAEHKGLQLLGRDCALGRAEAAGLGPSPEQRVEIVPRDLRMKDKFLKHLTGPLYFSPKCSKHFHRLYHNTRDCTIPAYYKRCARLLTRLAVSPVCMEDKQ

EC50 for FAM150A-induced LTK phosphorylation [1]: 1.96 nM
induction of LTK phosphorylation relative to an unrelated control protein [1]: > 20 fold
fold lower affinity than to human LTK ECD-Fc [2]: ~30 fold
B2: Human FAM150A (ligand)
chain: RPRGRRGARVTDKEPKPLLFLPAAGAGRTPSGSRSAEIFPRDSNLKDKFIKHFTGPVTFSPECSKHFHRLYYNTRECSTPAYYKRCARLLTRLAVSPLCSQT
notes: Expressed in HEK 293 6E cells (or HEK293T supernatant) and secreted
